From patent publication US20220259593A1, “CONTROL OF MAMMALIAN GENE DOSAGE USING CRISPR” (The Regents of the University of California, priority 2019, published 2022)

B1: cr201 (nucleic acid)
guide: GTTTAAGAGCTAAGCTGGAAACAGCATAGCAAGTTTAAATAAAGCTAGTCTGTTATCAACTTGAAAAAGTGGCACCGAGTCGGTGCT
modifications: listed as DNA, chemistry not fully specified
B2: cr634 (nucleic acid)
guide: GTTTAAGAGCTAAGCTGGAAACAGCATAGCAGGTTTAAATAAGGCTAGTCCGTTATCGACTTGAAAAAGTGGCACCGAGTCGGTGCT
modifications: listed as DNA, chemistry not fully specified
B3: cr192 (nucleic acid)
guide: GTTTAAGAGCTAAGCTGGAAACAGCATAGCAAGTTTAAATAAGGCTAGTCCGTTATCAACTTGAAAAAGTGGCCCCCAGTGGGGGCT
modifications: listed as DNA, chemistry not fully specified
B4: cr051 (nucleic acid)
guide: TTTTAACAGCTAAGCTGGAAACAGCATAGCAAGTTTAAATAAGGCTAGTCCGTTATCAACTTGAAAAAGTGGCACCGAGTCGGTGCT
modifications: listed as DNA, chemistry not fully specified
B5: cr897 (nucleic acid)
guide: GTTTAAGAGCTAAGCTGGAAACAGCATAGCAAGTTTATATAAGGCTAGTCCGTTATCAACTTGAAAAAGTGGCACCGAGTCGGTGCT
modifications: listed as DNA, chemistry not fully specified
B6: cr471 (nucleic acid)
guide: GTTTAAGAGCTAAGCTGGAAACAGCATAGCAAGTTTAAATAAGGCTAGTCCGTTATCAACTTGAAAAAGTGTCACACAGTGTGTGAT
modifications: listed as DNA, chemistry not fully specified
B7: cr756 (nucleic acid)
guide: GTTTAAGAGCTAAGCTGGAAACAGCATAGCAAGTTTAAATAAGGTTAATCCGTTATCAACTTGAAAAAGTGGCAACGAGTCGTTGCT
modifications: listed as DNA, chemistry not fully specified
B8: cr069 (nucleic acid)
guide: GCTTAAAAGCTAAGCTGGAAACAGCATAGCAAGTTTAAATAAGGCTAGTCCGTTATCAACTTGAAAAAGTGGCACCGAGTCGGTGCT
modifications: listed as DNA, chemistry not fully specified
B9: cr398 (nucleic acid)
guide: GTTTAAGAGCTAAGCTGGAAACAGCATAGCAAGTTTGAATAAGGCTAGTCCGTTATCAACTTGAAAAAGTGGCACCGAGTCGGTGCT
modifications: listed as DNA, chemistry not fully specified
B10: cr924 (nucleic acid)
guide: GTTTAAGAGCTAAGCTGGAAACAGCATAGCAAGTTTAAATAAAGCTAGTCTGTTATCAACTTGAAAAAGTGGCGCCGAGTCGGCGCT
modifications: listed as DNA, chemistry not fully specified
B11: cr127 (nucleic acid)
guide: GTTTAAGAGCTAAGCTGGAAACAGCATAGCAAGTTTAAATATGGCTAGTCCGTTATCAACTTGAGAAAGTGGCACCGACTCGGTGCT
modifications: listed as DNA, chemistry not fully specified
B12: cr895 (nucleic acid)
guide: GTTTAAGAGCTAAGCTGGAAACAGCATAGCAATTTTAAATAAGGCTAGTCCGTTATCAACTTGTAAAAGTGGCACCGAGTCGGTGCT
modifications: listed as DNA, chemistry not fully specified
B13: cr623 (nucleic acid)
guide: GTTTAAGAGCTAAGCTGGAAACAGCATAGCAAGTTTAAATAAGGCTAGTCCGTTATCACTGTGAAAACAGGGCACCGAGTCGGTGCT
modifications: listed as DNA, chemistry not fully specified
B14: cr074 (nucleic acid)
guide: GTTTATGCGCTAAGCTGGAAACAGCATAGCAAGTTTAAATAAGGCTAGTCCGTTATCAACTTGAAAAAGTGGCACCGAGTCGGTGCT
modifications: listed as DNA, chemistry not fully specified
B15: cr351 (nucleic acid)
guide: GTTTAAGAGCTAAGCTGGAAACAGCATAGCAAGTTTAAATAAGGCTCGTCCGTTATAAACTTAAAAAAGTGGCACCGAGTCGGTGCT
modifications: listed as DNA, chemistry not fully specified
B16: cr182 (nucleic acid)
guide: GTTTAAGAGCTAAGCTGGAAACAGCATAGCAATTTTAAATAAGGCTAGTCCGTTATCAACTTGAAAAAGTGGCACCGAGTCGGTGCT
modifications: listed as DNA, chemistry not fully specified
B17: cr349 (nucleic acid)
guide: GTTTAAGAGCTAAGCTGGAAACAGCATAGCAAGTTTAAATAAGGCTAGTCCGTTATCAACTTGAAAAAGTGGCACCGAGTTGGTGCT
modifications: listed as DNA, chemistry not fully specified
B18: cr689 (nucleic acid)
guide: GTTTAAGAGCTAAGCTGGAAACAGCATAGCAAGCTTAAATAAGGCTAGTCCGTTTTCAACTTGATAAAGTGGCACCGAGTCGGTGCT
modifications: listed as DNA, chemistry not fully specified
B19: cr315 (nucleic acid)
guide: GTTTAAGAGCTAAGCTGGAAACAGCATAGCAAGTTTAAATAAAGCTAGTCTGTTATCAACTGGAAACAGTGGCCCCGAGTCGGGGCT
modifications: listed as DNA, chemistry not fully specified
B20: cr173 (nucleic acid)
guide: GTTTAAGAGCTAAGCTGGAAACAGCATAGCAAGTTTAAATAAAGCTAGTCTGTTATCAACTTGAAAAAGTGGTAGCGAGTCGCTACT
modifications: listed as DNA, chemistry not fully specified
B21: cr196 (nucleic acid)
guide: GTTTAAGAGCTAAGCTGGAAACAGCATAGCAAGTTTAAATAAGGCTAGTCCGTTATCAACTTGAAAAAGTGGCAGCCAGTGGCTGCT
modifications: listed as DNA, chemistry not fully specified
B22: cr966 (nucleic acid)
guide: GTTTAAGAGCTAAGCTGGAAACAGCATAGCAAGTTTAAATAAGGCTAGTCCGTTATCAAGTTGAAAAACTGGCATGGAGTCCATGCT
modifications: listed as DNA, chemistry not fully specified
B23: cr014 (nucleic acid)
guide: GTTTCAGAGCTAAGCTGGAAACAGCATAGCAAGTTTAAATAAGGCTAGTCCGTTATCAACTTGAAAAAGTGGCACCGAGTCGGTGCT
modifications: listed as DNA, chemistry not fully specified
B24: cr573 (nucleic acid)
guide: GTTTAAGAGCTAAGCTGGAAACAGCATAGCTAGTTTAAATAAGGCTAGTCCGATATCAACTTGAAAAAGTCGCACCGAGTCGGTGCT
modifications: listed as DNA, chemistry not fully specified
B25: cr889 (nucleic acid)
guide: GTTTAAGAGCTAAGCTGGAAACAGCATAGCAAGTTTAAATAAAGCTAGTCTGTTATCAACTTGAAAAAGTGTCACCGAGTCGGTGAT
modifications: listed as DNA, chemistry not fully specified
B26: cr252 (nucleic acid)
guide: GTTTAAGAGCTAAGCTGGAAACAGCATAGCAAGTTTAAATAAGGCTAGTCCATTATCAACTTGAAAAAGTGGCACCGAGTCGGTGCT
modifications: listed as DNA, chemistry not fully specified
B27: cr242 (nucleic acid)
guide: GTTTAAGAGCTAAGCTGGAAACAGCATAGCAAGTTTAAATAAGGGTACTCCGTTATCAAGTTGAAAAACTGGCACCTAGTAGGTGCT
modifications: listed as DNA, chemistry not fully specified
B28: cr064 (nucleic acid)
guide: GTTTTAGAGCTAAGCTGGAAACAGCATAGCAAGTTTAAATAAGGCTAGTCCGTTATCAACTTGAAAAAGTGGCACCGAGTCGGTGCT
modifications: listed as DNA, chemistry not fully specified
B29: cr003 (nucleic acid)
guide: TTTTAAGAGCTAAGCTGGAAACAGCATAGCAAGTTTAAATAAGGCTAGTCCGTTATCAACTTGAAAAAGTGGCACCGAGTCGGTGCT
modifications: listed as DNA, chemistry not fully specified
B30: cr006 (nucleic acid)
guide: GGTTAAGAGCTAAGCTGGAAACAGCATAGCAAGTTTAAATAAGGCTAGTCCGTTATCAACTTGAAAAAGTGGCACCGAGTCGGTGCT
modifications: listed as DNA, chemistry not fully specified

Test system: K562 CRISPRi cells
Assay: Constant region variant library pooled growth screen, K562
Assay type: cell-based, human
Conditions: sgRNA constant region variants
Procedure, shortened: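 K562 CRISPRi, duplicate transductions; puromycin 1 d 0.75 μg/mL then 1 d 0.85 μg/mL; >2000× coverage in spinner flasks; harvests at 4-8 d growth. Activity = phenotype ÷ phenotype with unmodified constant region.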

[1] = relative to the original, un-modified constant region cr995, CRISPRi
[2] = activity relative to the unmodified constant region cr995
[3] = activity relative to the original, un-modified constant region cr995

Row | Molecule | Mean relative activity [1] | other results
1 | B1 | 0.3731 | –
2 | B2 | 0.3508 | –
3 | B3 | 0.3609 | –
4 | B4 | 0.3367 | –
5 | B5 | – | Mean relative activity [2]: 0.3233
6 | B6 | 0.3625 | –
7 | B7 | – | Mean relative activity [3]: 1.041
8 | B8 | – | Mean relative activity [2]: 0.3244
9 | B9 | 0.3667 | –
10 | B10 | 0.3638 | –
11 | B11 | 0.3659 | –
12 | B12 | 0.3709 | –
13 | B13 | – | Mean relative activity [3]: 1.041
14 | B14 | 0.341 | –
15 | B15 | 0.3557 | –
16 | B16 | 0.3559 | –
17 | B17 | 0.3326 | –
18 | B18 | 0.3547 | –
19 | B19 | 0.3642 | –
20 | B20 | – | Mean relative activity [2]: 0.3244
21 | B21 | 0.3626 | –
22 | B22 | 0.3699 | –
23 | B23 | 0.3395 | –
24 | B24 | 0.3297 | –
25 | B25 | 0.3347 | –
26 | B26 | 0.3581 | –
27 | B27 | 0.3244 | –
28 | B28 | 0.3383 | –
29 | B29 | 0.3678 | –
30 | B30 | 0.3275 | –
